{"source": "paper PMC6385203", "about": "“Mutations in the palm domain disrupt modulation of acid-sensing ion channel 1a currents by neuropeptides” (Scientific Reports, 2019)", "binders": {"B1": {"name": "FRRFa (Phe-Arg-Arg-Phe-amide) (peptide)", "peptide": "FRRF-NH2"}}, "key": {"[1]": {"molecular_target": "T1, human ASIC1a F302A (human) (UniProt P78348)", "T1 sequence": "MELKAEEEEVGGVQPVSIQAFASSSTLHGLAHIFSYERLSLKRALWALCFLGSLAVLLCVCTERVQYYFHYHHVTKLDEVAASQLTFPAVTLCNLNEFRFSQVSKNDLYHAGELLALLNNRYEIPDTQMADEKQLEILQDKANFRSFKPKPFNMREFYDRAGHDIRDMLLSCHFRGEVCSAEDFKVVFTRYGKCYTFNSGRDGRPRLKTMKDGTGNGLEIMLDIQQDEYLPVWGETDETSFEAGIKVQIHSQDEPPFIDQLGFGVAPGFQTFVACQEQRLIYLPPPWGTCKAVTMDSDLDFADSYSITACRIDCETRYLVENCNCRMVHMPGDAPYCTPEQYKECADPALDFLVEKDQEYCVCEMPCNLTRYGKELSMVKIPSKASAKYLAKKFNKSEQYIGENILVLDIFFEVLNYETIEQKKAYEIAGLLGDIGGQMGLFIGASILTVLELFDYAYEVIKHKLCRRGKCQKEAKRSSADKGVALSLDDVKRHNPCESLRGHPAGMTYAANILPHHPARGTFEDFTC"}, "[2]": {"molecular_target": "T2, human acid-sensing ion channel 1a, wild type (human) (UniProt P78348)", "T2 sequence": "T1 sequence with A302F"}, "[3]": {"molecular_target": "T3, human ASIC1a N416C (human) (UniProt P78348)", "T3 sequence": "T1 sequence with A302F, N416C"}, "[4]": {"molecular_target": "T2, human acid-sensing ion channel 1a, wild type (human)", "remark": "listed apart in the source"}}, "note": "Substitutions are numbered along the chain they refer to. Ends that are not written are not given here."}
{"binder": "B1", "values": [{"measurement": "EC50 of the FRRFa-mediated sustained current induction, two-electrode voltage-clamp", "setting": "[1]", "value": 11, "unit": "µM"}, {"measurement": "EC50 of the induction of a sustained current (I (sust)/I (peak) at pH5) by FRRFa, two-electrode voltage-clamp, Xenopus oocytes", "setting": "[2]", "value": 37, "unit": "μM"}, {"measurement": "association rate constant kon from the time course of appearance of the sustained current fraction with 50 μM FRRFa pre-applied at pH7.4, two-electrode voltage-clamp", "setting": "[2]", "value": 162, "unit": "s^−1 M^−1"}, {"measurement": "rate of disappearance of the sustained current after a 50-s incubation with 50 μM FRRFa (rate of unbinding), two-electrode voltage-clamp", "setting": "[2]", "value": 0.025, "unit": "s⁻¹"}, {"measurement": "EC50 of FRRFa for the I (sust)/I (peak) ratio increase at pH5, two-electrode voltage-clamp", "setting": "[3]", "value": 6, "unit": "μM"}, {"measurement": "koff from the time course of disappearance of the FRRFa-induced sustained current after washout of 50 μM FRRFa", "setting": "[3]", "value": 0.027, "unit": "s⁻¹"}, {"measurement": "koff from the time course of disappearance of the FRRFa-induced sustained current, WT in the direct comparison with N416C", "setting": "[4]", "value": 0.029}]}
